This data set can be described thus: label from the status in PepcDB records.
Consider “MLLVMGAHESGLDRARLQSLYEQLVATNEDETEKLAASGHSTGLVASEWARFLAPFDFGYRLVALQRESKRVAAALTRALYGIDTSGASEHDPLWAVEHRVLPVPVTDRLLFCEMRFLLVLALSRRLWMRLERVDPLGQENPFPRDAEIIERVEDLARQSRERLALLAERSPEALNAGKQEAHDCIEDLRTKETRAAEQVAGFAQALGDAALLEKVWHALVDEIAQNRQLNHALLQTLCQWVLMLIGADTEVPSSASCSDE”, for which the protein production entry is “not failed”.
As for “MTDDLLKPNRPHPLFKLATELGPLLVFFIVNAKFHLFAATGAFMVAVVAAVIASYVVTRHVPVMALVTAVVVLVFGTLTLVLHDETFIKMKPTIVYSLFGAVLAGGLLFGRSFIAIMFDQVFNLTAAGWRKLTLRWALFFFAMALLNEAVWRTQSTDFWVNFKVFGVVPLTMLFALLQMPLTKRYAAEPATLEQSAADEGDVSGR”, the entry is “not failed”; as for “MKVIILGSGSYSGTPKPLCTCENCTRARINPAFRRTRFSVYIEGGILIDPGPDLHYHLEKLNKEVETILITHAHFDHIFGLPDAQVFKKLTIASNPLGIKVARSLAMLAFNSEAPLGNDWDYVELKFWNEYKVNGVKVIHFPVVHSIEMAGGFLIERKNKTVAITGDTGPEIIRDSEVIDLIKGSDLLISEMTHKESIPKTHLGVNDAIELAKIVKAEQTVFAHISHSNYPQEILEKKVREAKISGIVARDFTIIEI”, “failed”.
“QELKGKYMKTPTGYLMVLRHGDNVLQNLEQLARDEHIPSASFVGIGFMSEATFGFYDFGRKQFDPKTYRNVEMANMTGSIAWKEGKPSIHAHGTVTDGTFQGAGGHLLGLTVGTGSCEITVTVYPQRLDRFVDPEIQANVLGLPQQ”: the protein production entry is “not failed”.
On to “MMMGRIKPTDGTAGNPEFNAELVAEKIEAITSPPPAPDTSEPDAAASQPAAPQTAAPPAQTVAQPAPVTPPIVSEPPAPQQAAAAPQPAVDESALRYFASRGDKVRLQAEISRLQALYPNWVPPADPLAVPQNGDKQLEAMWQLYSDGRYAELRKAVADRQAADAGWQPPADLLDRLDVAEGRARLVNASDLKQYATVVDIAAATPSLLTCSEIDVLWRVAEAFIQTERAQRGQDAYTYILKNCTNPAERQATVEKASTLLAYQPMQALLALERPAADGSKEFDAIRDNLARRFMAEGDDEPNLAIAPDYIARLEKLAETQGLASDALLLGWYQLRRNNDADAEKWFRAARAKQDSAAASQGLALALIARKAPEEAEDVMFRWRADSDDATSTYLAATANLMALQPPADLAEDVLHRIAGEVIARKYVPTAQQFGWYARSLNQFQTAARWFETALAWKPDDEPSAYGLVITREQLSDRKGVLDLQRAWAGRSSRITNLEDTSSLMPNAVTPPPAKGTLAAQQPAQPTQHPPAEPLPAERRVILQPGSEVVVRAARPSMETVNVPRGPRQTRGCSTTIDAGQLKPADALSRGWCLMDINRPMEAISAFESALQSPSRKVREDAAYGQSLAYLRAGLSGNAAVAATKAPQNRQRAAELQVAILADRALSAFDAGRYRETLIYLDQRAQLQQERIDLMVLRGYCYLNLKMYGDATRIFEAAAATGSRDAARGLADVRNVTHPDVND”, for which the protein production result is “failed”.
“MEWGGLDERQICWQVNGRGGQGLAGCSFLRGVRKRSRPPRLLPSRPPAAMSTFERHIIKRLLKGFVLFVGALLVFFIVLHWVEYSDDFLDGGATIWEVFTVFYPNYVPEIIRLTSPLALFLSCIYLTGTLAQELQLVALQTSGVSLYQLMRPYLGVGLLVTVFMFGFNGWVVPKTNEVVVRYENEYLPGNQKSVQTSEIHRRNGPNSILSVGYYDADRERAHTVSLQQLAGDARLARRVDANRMEWDDSLEVWRLDDVTRRTFVKGETQRKRTIASLDTTLQVYPRDLARSKNDVAAMTIPAAAEYLAALRRSGVGGLTRPLVAYYNKFAYPFANLLLVLIGVPIASTRRRGGQAVRFAIGLLIAFVYLSVQKLAEPLGYAGTLSPAWTAWLPHLTFAVVALLVLWWARK”: the protein production entry is recorded as “failed”.
As for “ALIAGHFADPFSVLGMHRTDAGLEVRALLPDATDVWVIEPKTGRKVGKLECLDSRGFFSGVLPRRKNAFRYQLAVTWHGQQNLIDDPYRFGPLLQ”, the entry is “failed”; as for “RGRYRQYNSEILEEAISVVMSGKMSVSKAQSIYGIPHSTLEYKVKERLGTLKNPPKKKMKLMR”, “not failed”; as for “MQQINFYRQRVAINVLAKDIANAKAIYEAAEGHAVIGVLSAQFATVEEGVPEVKRWMAEVPSISVGLGAGDPAQYYKAAMIAAHTHPAHVNQTFTGSGFAAGALAATGGEQTHINALVSPTGTPGEVVISTGVSSSQGTPARVSCEAAVRMMQDMGAHAAKFFPMGGEKSLPELYALATTAARHGMTLIEPTGGISLDNFGIILQTCLEAGVPRVMPHVYSSIIDPQTGNTRPEDIIQLMEIVKALV”, “failed”.
With “MTNTAAPATVSAGWADALLASFGQAGYAKAEPAILQPAEPFLDLSGEDIRKSLYLTTDAGGEELCLRPDLTIPVARDYLASSSAGKPAGFCYLGPVFRQRGGKRSEFLQAGIESFGRKDRAAADAEMLALALGATAAFGVAELDIRTGDVALFTALIDALDLYPVWRRRLIKDFNRKSDLAQDLEQLTLATATPRNEYEGVLAALAGSDRKAALALVTDLMSIAGASNVGGRSVAEIADRFLEQSTLKGGALPRDALDKIKRFLAISGSPGDALLQLRALAADAKLDIVAAIDEFEARIGFMAARGIDLSATRFSTSFGRGVDYYTGFEFELHRKDNGDEPLVAGGRYDGLLSQLGATAPIAAVGFSVWIEAFTDLAHPANSSAGSAT”, the protein production result is on record as “failed”.
On to “MPQTLKPDTPAGTPAAGAVAFRRQVLPQDALLVRRVVESTGFFTPEEADVAQELVDEHLMHGAACGYHFVFATEDDDMAGYACYGPTPATEGTYDLYWIAVAPHRQHSGLGRALLAEVVHDVRLTGGRLLFAETSGIRKYAPTRRFYERAGFSAEAVLKAFYRAGDDKIIYRLEVA”, for which the protein production result was “not failed”.
On to “MMSSSTTTLVDAVASPQAQQAVYIGLVNPKTPTNVGGIMRASGCYGVDAVFYTGKRYEYAARGPQQYNADTQSAAERIPLTGVTSLLDAIPAGTQLVCVDLVLGATPLPEFVHPERAFYVFGPEDGTIGQEIIDRADAVVYVPTVGCMNLAASVNVLLYDRLAKTYRKQATNEAEFDGDALIRTSRDNNNRTRVKTTKRESSK”, for which the protein production result is given as “failed”.
With “SLRHSPSLWELVEEHVPLRERREVKRILGEAAVDLSLELRAEVAMLRALLQEARSSQAPSSRPISDPSSLLAPPPLLKDLLRQELRQLLQGLRHKAICEGRDQAQAWVQYSPRVLHFALEEPRCDLPEQEIFQMRGGGPSSGHRDLSIIKDQLNVSNIDQVARHLRGLLEEECHTLEREILILQRCLEEEYLRPCHPSEAALEPTLAELKEQKKAMEQELQASVGPSCVSPNHRQRPLGSSTQGLRPPLPLCGVAPLQCCLPAPPLEPYLRPRGQSATHRWGRQLQCSPREGPASTPMSSAAPQAPA”, the protein production result was “not failed”.
“MRPLEDDEPTVVGPYRLLGRLGSGGMGRVYLGRSAGGRTVAVKIVHPHFALDEEFRARFRREVAAARRVGGAWTAPVLDADPEARVPWVATAYAAGPSLTAAVADGGPLPAHSVRALGAGLGEALAAVHELGLVHRDVKPSNVLLTLDGPLLIDFGIARATGGTSPTQSGGGTASLTSTGVSIGSPGYMSPEQILGKGVTGAADVFSLGAVLAYATTGQPPFPGDSSAALLYKVVHEEPNLDGLDDGELRELVASCLAKDPSARPAPAEVARRLAPEGAARLVTGGWLPGALVERVSRSAVRLLNLEAGESATGASGPVGFSRPSVTAGGDAGVATPASGVFGPPPVMPAPTSPSYPPSPPAPAPAPSPALLSVPGPRHPGPPDDDPGAGTGTTRPPGRLALSVAATSTQGAQGRGRRISCTVALAVAGALAAVTVGSVFVLDLLPGSGNDANNAGGNEASHDPPAATPGGLPARYLGTWEGQAAALDGKLPLGTFRITIKQAKAGQELGRLRQTDALGGVCVDVITLKKVTEKQLVAGSAGAEGNHDGCNPAPTTVTFTPVGDDLDYASKSEESGRPTARLSKVG”: the protein production result was “failed”.
The same measure for “MTMTLHTKASGMALLHQIQGNELEPLNRPQLKIPLERPLGEVYLDSSKPAVYNYPEGAAYEFNAAAAANAQVYGQTGLPYGPGSEAAAFGSNGLGGFPPLNSVSPSPLMLLHPPPQLSPFLQPHGQQVPYYLENEPSGYTVREAGPPAFYRPNSDNRRQGGRERLASTNDKGSMAMESAKETRYCAVCNDYASGYHYGVWSCEGCKAFFKRSIQGHNDYMCPATNQCTIDKNRRKSCQACRLRKCYEVGMMKGGIRKDRRGGRMLKHKRQRDDGEGRGEVGSAGDMRAANLWPSPLMIKRSKKNSLALSLTADQMVSALLDAEPPILYSEYDPTRPFSEASMMGLLTNLADRELVHMINWAKRVPGFVDLTLHDQVHLLECAWLEILMIGLVWRSMEHPVKLLFAPNLLLDRNQGKCVEGMVEIFDMLLATSSRFRMMNLQGEEFVCLKSIILLNSGVYTFLSSTLKSLEEKDHIHRVLDKITDTLIHLMAKAGLTLQQQHQRLAQLLLILSHIRHMSNKGMEHLYSMKCKNVVPLYDLLLEMLDAHRLHAPTSRGGASVEETDQSHLATAGSTSSHSLQKYYITGEAEGFPATV”: “not failed”; for “MAGSHAGTLRVLQAVDTELTADSVEWCPVEGYQHLLACGTYQLRAPRDQPALDGSEPQVRLGRLYLFSFSEHNTAKPLLEVQRRDSSAVLDMKWCHIPVSGHVLLGLANASGSIGLLRLMECENNSYTLQPISSLALDENCLSLSMDWSTGKSVRAREQPLKIISSDSKGQLHLLMVNEGTAELQLVASWPAHHFEAWIAAFNYWQTELVYSGGDDCLLRGWDTRMLGTPVFTSKRHCMGVCSIQSSPHQEHILATGSYDEHVLLWDTRNIRQPLADVPVQGGVWRLKWHPVHHHLLLAACMHNGFKILNCQKAIEEKQDITVLTSHEMPNSLVYGADWSWLFHSMKPTPTWFFDQNDMGVKAADHSSLKVTEEPPIHSQEQTMDRQVEGPANAHTRAELKASLLPLTEDMKNSKDCSSSSVKTRDLSHCSGGQSFDNSLLATCSFYDHVLHLWKWETNQARTLCSGTGCDLGSADH”: “failed”.
Consider “SDILKDPPSEANSIQSANATTKTSETNHTSRPRLKNVDRSTAQQLAVTVGNVTVIITDFKEK”, for which the protein production entry is “failed”.
For “MTVGIIGAGNIGGAFATALGKAGIEAVIANSRGPESLTALVSKLGSTIRAGSVPEAAAQAIVLVAVPWSKIPGALAGLNFGDRIVIDANNSIEAPLYRPADLGGRTSTDIFTALVPGARVVKAFNHLTPKQLSGDPHSEGGRRVLFYSGDDMRAKAEVGAIIDRIGFFGIDLGGLPVGSQLLQFPGGPLPALNLVKFD”, the protein production entry is listed as “failed”.
As to “MRWKYLVVLLIVILLASGCAEKSQGPGASAAFQEPESDTQDTEKTGNSEEGVHIDSVVFSRAGALLTLKDEAEISEIRVYSESEEIASQEIGKNKDNVFVSFNWDPEARYRFEVITGSGASGTIEAYAPSKPALKKEYTIELEDVTPGDIEKTSTNVEGALKFSPDSEYLAIGTNGGSLKLIKVATGEKVWEKQLVKGIADARIADIEFSEDGKRLFVGEESPDAFLYCFDLEGTEIWKYGAGKELGSDLKYMPAMKKIKLDSEGNIYVAASRACGYIGEKYKYLARIYSFDPEGNLRWKFPESEYMDSGVTWIDATPDGKYAVFGTTCFTETEKWREGTVHALNGNTGQEHWSYKIQPVEPFFDYSAIWYSTQITPDGEKLITMTSDGRAFLFNNSRIIETGTPEITWQQNISTPIVVSGVPIYGSANYAYIVNDTLIFSIGSTFSKDKNKDAPFEHPSGNSLFAYDYDGNLLWKWRVDGYAGECAVNDRYLVIPLAQNLVTEDRSVHGVYVFDASKSGGASSRLIQTYNTEGITVSADISPDGRYIAALEAPSRLDDGTVLGEYKVHILT”, the protein production result is “failed”.
For “IYLYATATGEVRQMHGITVDRERERRVPDHHQLDSDTTTHSHSVKNQEYYKLLHENDTWKLSQSLKDRPFVALNPTRKAQMLAHLCNDLLMNKAVLRQIDGSLETCAQMRKEKYMTDMKVRKYKALHMRKARIEAYERAQAEREAAMQALM”, the protein production result is recorded as “failed”.
